From patent US20190194309A1 (AGENCY FOR SCIENCE TECHNOLOGY AND RESEARCH, published 2019)

Biological target: T1, Macrophage stimulating protein receptor (RON - Recepteur d' Origine Nantais), human (human, UniProt Q04912 25-1400)
T1 construct: whole, on cells; Endogenous RON of human cancer cell lines (HCT116, HT29, T47D and others) or RON transfected into H1299 cells; In Western blots and immunoprecipitations it comes from cell lysates; also called human RON receptor tyrosine kinase; MST1R
Assay: immunofluorescence on PFA fixed HCT116 cells
Procedure: Cells were stained with DAPI for nuclear visualization and anti-mouse conjugate to 488 was used as a secondary mouse antibody.
The 4% paraformaldehyde fixed HCT116 and TKO cells were subjected to permeabilization with 0.4% Triton X-100 for 20 minutes. After rinsing with PBS, cells were blocked with 5% BSA in PBSTritonX (PBSTX) for 20 min, followed by overnight incubation in hybridoma supernatant at 4° C. IgGs were detected using 1:1000 […] Alexaflor 488 Donkey anti-mouse IgG conjugated (Life technologies) in PBSTX with 1% BSA. Subsequently, cells were counterstained with DAPI, and viewed with Incell Analyzer (GE Healthcare).

binding result: binds
B1: 7G8 (antibody, V domains shown)
VH: EVQLEQSGGGLVQPGGSLKLSCAASGFTFNTYTMSWVRQTPEKRLEWVAYISNGGGSTYYPDTVKGRFTISRDNAKNTLYLQMSSLKSEDTAMYYCARGYRYAAMDYWGQGTSVTVSS
VL: DIVMTQTTATLSVTPGDGVSLSCRASQSINNNLHWYQQKSHESPRLLIKFASQSISGIPSRFSGSGSGTDFTLSINSVETEDFGMYFCQQSNSWPLTFGAGTKLELK
notes: Mouse monoclonal antibody from a hybridoma (Balb/c mice immunised with truncated human RON-GST); kappa light chain; Tested as hybridoma supernatant or purified mAb; also called mAb 7G8; anti-RON mouse mAb 7G8
